Among the data in publication PMC2964344 are other values, retold here.

For the data set the following is noted: methylation at K27.

In the case of “histone H3: ATXR6 Y243N (SET-domain catalytic mutant) expressed in atxr5 atxr6”, the other entry is reported as “changes”.
